B1: eIF2Bα (α-subunit of yeast eIF2B) (natural protein, S. cerevisiae, UniProt P14741 1-305, looked up)
chain: MSEFNITETYLRFLEEDTEMTMPIAAIEALVTLLRIKTPETAAEMINTIKSSTEELIKSIPNSVSLRAGCDIFMRFVLRNLHLYGDWENCKQHLIENGQLFVSRAKKSRNKIAEIGVDFIADDDIILVHGYSRAVFSLLNHAANKFIRFRCVVTESRPSKQGNQLYTLLEQKGIPVTLIVDSAVGAVIDKVDKVFVGAEGVAESGGIINLVGTYSVGVLAHNARKPFYVVTESHKFVRMFPLSSDDLPMAGPPLDFTRRTDDLEDALRGPTIDYTAQEYITALITDLGVLTPSAVSEELIKMWYD
notes: eIF2B alpha subunit (GCN3), S. cerevisiae; Subunit of the purified eIF2B complex, written alone for the subunit pairs; also called eIF2B α-subunit; GCN3
B2: eIF2Bβ (β-subunit of yeast eIF2B) (natural protein, S. cerevisiae, UniProt P32502 1-381, looked up)
chain: MSSQAFTSVHPNAATSDVNVTIDTFVAKLKRRQVQGSYAIALETLQLLMRFISAARWNHVNDLIEQIRDLGNSLEKAHPTAFSCGNVIRRILAVLRDEVEEDTMSTTVTSTSVAEPLISSMFNLLQKPEQPHQNRKNSSGSSSMKTKTDYRQVAIQGIKDLIDEIKNIDEGIQQIAIDLIHDHEILLTPTPDSKTVLKFLITARERSNRTFTVLVTEGFPNNTKNAHEFAKKLAQHNIETLVVPDSAVFALMSRVGKVIIGTKAVFVNGGTISSNSGVSSVCECAREFRTPVFAVAGLYKLSPLYPFDVEKFVEFGGSQRILPRMDPRKRLDTVNQITDYVPPENIDIYITNVGGFNPSFIYRIAWDNYKQIDVHLDKNKA
notes: eIF2B beta subunit (GCD7), S. cerevisiae; Subunit of the purified eIF2B complexes, written alone for the subunit pairs; also called eIF2B β-subunit; β/Gcd7
B3: eIF2γ, His-tagged (γ-subunit of yeast eIF2) (natural protein, S. cerevisiae, UniProt P32481 1-527, looked up)
chain: MSDLQDQEPSIIINGNLEPVGEPDIVEETEVVAQETQETQDADKPKKKVAFTGLEEDGETEEEKRKREFEEGGGLPEQPLNPDFSKLNPLSAEIINRQATINIGTIGHVAHGKSTVVRAISGVQTVRFKDELERNITIKLGYANAKIYKCQEPTCPEPDCYRSFKSDKEISPKCQRPGCPGRYKLVRHVSFVDCPGHDILMSTMLSGAAVMDAALLLIAGNESCPQPQTSEHLAAIEIMKLKHVIILQNKVDLMREESALEHQKSILKFIRGTIADGAPIVPISAQLKYNIDAVNEFIVKTIPVPPRDFMISPRLIVIRSFDVNKPGAEIEDLKGGVAGGSILNGVFKLGDEIEIRPGIVTKDDKGKIQCKPIFSNIVSLFAEQNDLKFAVPGGLIGVGTKVDPTLCRADRLVGQVVGAKGHLPNIYTDIEINYFLLRRLLGVKTDGQKQAKVRKLEPNEVLMVNIGSTATGARVVAVKADMARLQLTSPACTEINEKIALSRRIEKHWRLIGWATIKKGTTLEPIA
notes: eIF2 gamma subunit (GCD11), S. cerevisiae; also called GCD11-His6; source: S. cerevisiae strain GP3511 co-overexpressing all three eIF2 subunits, purified (Ni-chelate, heparin-Sepharose); not shown: His6, C-terminal, kept
B4: eIF2Bδ (δ-subunit of yeast eIF2B) (natural protein, S. cerevisiae, UniProt P12754 1-651, looked up)
chain: MSESEAKSRSATPPSKAKQATPTTTAAANGEKKLTNKELKELKKQEKAAKRAAMKQANGISIEQQQQQAQMKKEKKQLQREQQQKREQKQKNANKKKQNERNVKKSTLFGHLETTEERRATILALTSAVSSPKTSRITAAGLMVPVVASALSGSNVLTASSLMPVGPNASSTVSASAPASTTTTLPASSAALSAGTSSASTNTPTAIQQEIASSNASDVAKTLASISLEAGEFNVIPGISSVIPTVLEQSFDNSSLISSVKELLLNKDLIHPSILLLTSHLAHYKIVGSIPRCIAMLEVFQIVIKDYQTPKGTTLSRNLTSYLSHQIDLLKKARPLSVTMGNAIRWLKQEISLIDPSTPDKAAKKDLCEKIGQFAKEKIELADQLIIDNASTQIEESTTIVTYGSSKVLTELLLHNAISLKKNIKVIVVDSRPLFEGRKMAETLRNAGVNVMYALITSLDTIFNMDVDYVFLGAHSILSNGFLYSRAGTAMLAMSAKRRNIPVLVCCESLKFSQRVQLDSVTFNELADPNDLVNIDYENPVERRGNKGALLNQFIKERKFEKKKLAMENKPKGNKIGGKKGSEGESKDASNEEDSNSKNILDGWQELPSLNIVNILYDLTPPEYIKKVITEFGALPPSSVPVILREYKGSA
notes: eIF2B delta subunit (GCD2), S. cerevisiae; Subunit of the purified eIF2B complexes, written alone for the subunit pairs; also called eIF2B δ-subunit; δ/Gcd2
B5: eIF2Bε (ε-subunit of yeast eIF2B, untagged) (natural protein, S. cerevisiae, UniProt P32501 1-712, looked up)
chain: MAGKKGQKKSGLGNHGKNSDMDVEDRLQAVVLTDSYETRFMPLTAVKPRCLLPLANVPLIEYTLEFLAKAGVHEVFLICSSHANQINDYIENSKWNLPWSPFKITTIMSPEARCTGDVMRDLDNRGIITGDFILVSGDVLTNIDFSKMLEFHKKMHLQDKDHISTMCLSKASTYPKTRTIEPAAFVLDKSTSRCIYYQDLPLPSSREKTSIQIDPELLDNVDEFVIRNDLIDCRIDICTSHVPLIFQENFDYQSLRTDFVKGVISSDILGKHIYAYLTDEYAVRVESWQTYDTISQDFLGRWCYPLVLDSNIQDDQTYSYESRHIYKEKDVVLAQSCKIGKCTAIGSGTKIGEGTKIENSVIGRNCQIGENIRIKNSFIWDDCIIGNNSIIDHSLIASNATLGSNVRLNDGCIIGFNVKIDDNMDLDRNTKISASPLKNAGSRMYDNESNEQFDQDLDDQTLAVSIVGDKGVGYIYESEVSDDEDSSTEACKEINTLSNQLDELYLSDDSISSATKKTKKRRTMSVNSIYTDREEIDSEFEDEDFEKEGIATVERAMENNHDLDTALLELNTLRMSMNVTYHEVRIATITALLRRVYHFIATQTLGPKDAVVKVFNQWGLLFKRQAFDEEEYIDLMNIIMEKIVEQSFDKPDLILFSALVSLYDNDIIEEDVIYKWWDNVSTDPRYDEVKKLTVKWVEWLQNADEESSSEEE
notes: eIF2B epsilon subunit (GCD6), S. cerevisiae; Subunit of the purified eIF2B complexes, written alone for the subunit pairs; also called eIF2B ε-subunit; ε/GCD6

Key:
[1] = molecular target: yeast FLAG-tagged eIF2B complex (five subunits α–ε; decamer) (S. cerevisiae) (UniProt P14741); test: native MS; FLAG-purified five-subunit eIF2B in 500 mM ammonium acetate; high collision energy for dissociation; decamer = two copies of each of five subunits
[2] = molecular target: yeast FLAG-tagged eIF2B complex (five subunits α–ε; decamer) (S. cerevisiae) (UniProt P14741); test: native MS; eIF2-eIF2B preparations (purified at low ionic strength, or formed with phosphorylated eIF2 on anti-FLAG resin) exchanged into 500 mM ammonium acetate
[3] = molecular target: T1, eIF2Bγ, FLAG-tagged (γ-subunit of yeast eIF2B) (S. cerevisiae, UniProt P09032 1-578); test: label-free quantitative proteomics (iBAQ) of the purified complex; eIF2-eIF2B complex purified after phosphorylation of eIF2, trypsin digest, nanoLC-MS/MS, iBAQ intensities compared; eIF2B subunits relative to FLAG-tagged γ (set to 1), eIF2 subunits relative to α; conditions: both partners purified
T1 construct: eIF2B gamma subunit (GCD1), S. cerevisiae; Bait of all eIF2B complex purifications; also called GCD1-FLAG2-His6; source: S. cerevisiae strains overexpressing eIF2B subunits, purified (anti-FLAG resin, FLAG peptide elution); not shown: FLAG2, C-terminal, kept
T1 sequence (looked up): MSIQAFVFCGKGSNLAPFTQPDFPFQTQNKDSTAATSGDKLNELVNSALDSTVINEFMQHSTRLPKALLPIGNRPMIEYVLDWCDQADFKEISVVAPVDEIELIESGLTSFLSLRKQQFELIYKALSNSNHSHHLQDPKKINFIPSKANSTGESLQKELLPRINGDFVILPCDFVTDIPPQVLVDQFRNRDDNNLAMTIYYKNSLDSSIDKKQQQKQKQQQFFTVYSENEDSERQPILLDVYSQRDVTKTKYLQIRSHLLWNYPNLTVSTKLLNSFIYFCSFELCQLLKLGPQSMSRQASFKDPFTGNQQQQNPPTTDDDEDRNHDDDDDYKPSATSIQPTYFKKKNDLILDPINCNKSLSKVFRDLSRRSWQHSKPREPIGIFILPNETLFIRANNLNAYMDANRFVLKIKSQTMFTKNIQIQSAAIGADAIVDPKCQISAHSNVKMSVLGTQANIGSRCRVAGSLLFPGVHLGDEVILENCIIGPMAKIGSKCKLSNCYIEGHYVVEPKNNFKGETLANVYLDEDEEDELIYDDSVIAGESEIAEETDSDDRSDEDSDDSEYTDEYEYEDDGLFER

[4] = molecular target: B5; test: cross-linking; BS3-d0/d4 (1:1) added to purified complexes (eIF2:eIF2B, four-subunit eIF2B, eIF2Bγε core), 30 min at 26 °C, trypsin digest, nanoLC-MS/MS, MassMatrix search; the text does not tell which cross-link came from which complex; conditions: both partners purified
[5] = molecular target: B4; test: as above; conditions: both partners purified
[6] = molecular target: T1, eIF2Bγ, FLAG-tagged (γ-subunit of yeast …); test: as above; conditions: both partners purified
[7] = molecular target: eIF2α phosphorylated at Ser51 (subunit of phosphorylated eIF2) (S. cerevisiae) (UniProt P20459); test: label-free quantitative proteomics (iBAQ) of the purified complex; eIF2-eIF2B complex purified after phosphorylation of eIF2, trypsin digest, nanoLC-MS/MS, iBAQ intensities compared; eIF2B subunits relative to FLAG-tagged γ (set to 1), eIF2 subunits relative to α

Molecule | stoichiometry N [3] | binding result [4] | binding result [5] | other results
yeast FLAG-tagged eIF2B complex (five subunits α–ε; decamer), P14741 1-305; P32502 1-381; P09032 1-578; P12754 1-651; P32501 1-712 | – | – | – | stoichiometry N [1]: 10; stoichiometry N [2]: 10
B1 | 1.12 | – | – | –
B2 | 1.4 | binds | binds | –
B3 | – | – | binds | binding result [6]: binds; stoichiometry N [7]: 1.67
B4 | 0.95 | binds | – | –
B5 | 0.76 | – | – | –
